Values quoted from earlier work in paper PMC3113683 (Biochemistry, 2009).

B1: LYP-W620: genetic variant of LYP carrying Trp620 instead of Arg620 in the C-terminal domain (protein, UniProt Q9Y2R2 1-807, looked up, variant R620W)
Tyrosine-protein phosphatase …: MDQREILQKFLDEAQSKKITKEEFANEFLKLKRQSTKYKADKTYPTTVAEKPKNIKKNRYKDILPYDYSRVELSLITSDEDSSYINANFIKGVYGPKAYIATQGPLSTTLLDFWRMIWEYSVLIIVMACMEYEMGKKKCERYWAEPGEMQLEFGPFSVSCEAEKRKSDYIIRTLKVKFNSETRTIYQFHYKNWPDHDVPSSIDPILELIWDVRCYQEDDSVPICIHCSAGCGRTGVICAIDYTWMLLKDGIIPENFSVFSLIREMRTQRPSLVQTQEQYELVYNAVLELFKRQMDVIRDKHSGTESQAKHCIPEKNHTLQADSYSPNLPKSTTKAAKMMNQQRTKMEIKESSSFDFRTSEISAKEELVLHPAKSSTSFDFLELNYSFDKNADTTMKWQTKAFPIVGEPLQKHQSLDLGSLLFEGCSNSKPVNAAGRYFNSKVPITRTKSTPFELIQQRETKEVDSKENFSYLESQPHDSCFVEMQAQKVMHVSSAELNYSLPYDSKHQIRNASNVKHHDSSALGVYSYIPLVENPYFSSWPPSGTSSKMSLDLPEKQDGTVFPSSLLPTSSTSLFSYYNSHDSLSLNSPTNISSLLNQESAVLATAPRIDDEIPPPLPVWTPESFIVVEEAGEFSPNVPKSLSSAVKVKIGTSLEWGGTSEPKKFDDSVILRPSKSVKLRSPKSELHQDRSSPPPPLPERTLESFFLADEDCMQAQSIETYSTSYPDTMENSTSSKQTLKTPGKSFTRSKSLKILRNMKKSICNSCPPNKPAESVQSNNSSSFLNFGFANRFSKPKGPRNPPPTWNI
B2: PEP: mouse homologue of LYP called PEST-enriched phosphatase (protein, UniProt P29352 1-802, looked up)
Tyrosine-protein phosphatase …: MDQREILQQLLKEAQKKKLNSEEFASEFLKLKRQSTKYKADKIYPTTVAQRPKNIKKNRYKDILPYDHSLVELSLLTSDEDSSYINASFIKGVYGPKAYIATQGPLSTTLLDFWRMIWEYRILVIVMACMEFEMGKKKCERYWAEPGETQLQFGPFSISCEAEKKKSDYKIRTLKAKFNNETRIIYQFHYKNWPDHDVPSSIDPILQLIWDMRCYQEDDCVPICIHCSAGCGRTGVICAVDYTWMLLKDGIIPKNFSVFNLIQEMRTQRPSLVQTQEQYELVYSAVLELFKRHMDVISDNHLGREIQAQCSIPEQSLTVEADSCPLDLPKNAMRDVKTTNQHSKQGAEAESTGGSSLGLRTSTMNAEEELVLHSAKSSPSFNCLELNCGCNNKAVITRNGQARASPVVGEPLQKYQSLDFGSMLFGSCPSALPINTADRYHNSKGPVKRTKSTPFELIQQRKTNDLAVGDGFSCLESQLHEHYSLRELQVQRVAHVSSEELNYSLPGACDASCVPRHSPGALRVHLYTSLAEDPYFSSSPPNSADSKMSFDLPEKQDGATSPGALLPASSTTSFFYSNPHDSLVMNTLTSFSPPLNQETAVEAPSRRTDDEIPPPLPERTPESFIVVEEAGEPSPRVTESLPLVVTFGASPECSGTSEMKSHDSVGFTPSKNVKLRSPKSDRHQDGSPPPPLPERTLESFFLADEDCIQAQAVQTSSTSYPETTENSTSSKQTLRTPGKSFTRSKSLKIFRNMKKSVCNSSSPSKPTERVQPKNSSSFLNFGFGNRFSKPKGPRNPPSAWNM

Tests used:
LYP = settings: ref [7], [18]; cited from earlier work
[1] = test system: T cell receptor (TCR) signaling; settings: cited from earlier work
PEP = settings: immunoprecipitated full-length PEP vs amino acids 1−290; ref [5]; cited from earlier work

Row | Molecule | Phosphatase activity of variant (LYP) | Effect of variant on signaling ([1]; ref [7], [18]) | Catalytic activity vs catalytic domain alone (PEP) | Inhibition of T cell receptor signaling ([1]; T cells, ref [4]-[8])
1 | B1 | increased phosphatase activity | gain-of-function inhibitor of signaling | – | –
2 | B2 | – | – | much lower than the activity of the catalytic domain alone | potently inhibit T cell receptor (TCR) signaling
